Data published in article PMC2766422.
Where two headings read alike, the source gives them in different places.

How the values were obtained:
PTB1/W4 [1] = biological target: T1, PTB1/W4 (human, UniProt P26599-1 1-531, F487W); assay: Trp fluorescence quenching
PTB1 [2] = biological target: T2, PTB1 (human, UniProt P26599-1 1-531); assay: filter binding
PTB1/W3 [3] = biological target: T3, PTB1/W3 (human, UniProt P26599-1 1-531, F371W); assay: Trp fluorescence quenching
PTB1:12 (RRM1-RRM2) [4] = biological target: T4, PTB1:12 (RRM1-RRM2) (human, UniProt P26599-1 1-301); assay: EMSA
PTB1 [5] = biological target: T2, PTB1; assay: EMSA
PTB1 [6] = biological target: T2, PTB1; assay: EMSA; remark: listed apart in the source
PTB1 [7] = biological target: T2, PTB1; assay: EMSA; remark: listed apart in the source
PTB1:12 (RRM1-RRM2) [8] = biological target: T4, PTB1:12 (RRM1-RRM2); assay: EMSA; remark: listed apart in the source
PTB1 [9] = biological target: T2, PTB1; assay: EMSA; remark: listed apart in the source
PTB1:34 (RRM3-RRM4) [10] = biological target: T5, PTB1:34 (RRM3-RRM4) (human, UniProt P26599-1 334-531); assay: EMSA
PTB1/W3 [11] = biological target: T3, PTB1/W3; assay: EMSA
PTB1/W4 [12] = biological target: T1, PTB1/W4; assay: EMSA
PTB1/W1 = PTB1/W1 (human, UniProt P26599-1 1-531, F98W); assay: EMSA
PTB1 [13] = biological target: T2, PTB1; assay: EMSA; remark: listed apart in the source
PTB1:12 (RRM1-RRM2) [14] = biological target: T4, PTB1:12 (RRM1-RRM2); assay: EMSA; remark: listed apart in the source
PTB1:34 (RRM3-RRM4) [15] = biological target: T5, PTB1:34 (RRM3-RRM4); assay: EMSA; remark: listed apart in the source
PTB1 [16] = biological target: T2, PTB1; assay: EMSA; remark: listed apart in the source
PTB1:34 (RRM3-RRM4) [17] = biological target: T5, PTB1:34 (RRM3-RRM4); assay: EMSA; remark: listed apart in the source

For GGAGACUUGGUGGCUCCAUCUUAGCCCUA (structured_RNA) [HCV X SL3], the binding result (PTB1/W4 [1]) was “binds”, the Kd (PTB1 [2]) was 410 ± 30 nM and the binding result (PTB1/W3 [3]) was “binds”. The Kd (PTB1:12 (RRM1-RRM2) [4]) was 1600 ± 600 nM and the Kd (PTB1 [5]) was 285 ± 120 nM.

B1: c-src 5' SL + N1 (78-mer, RNA78) (structured_RNA)
RNA: GGCAACCCUCUCCUUCUCUCUGCUUCUCUCUCGCUGGCCCUUAGGAGGAAGGUGCCAUCGAUGUCAGGUGUGUACCGAGG
Work on B1 yielded a Kd (PTB1 [6]) of 80 ± 2 nM.

GGGUCACGGCUAGCUGUGAAAGGUCCGUGAG (structured_RNA) [HCV X SL2]: no binding (PTB1 [7]).

With GGGACUACGCAAUUCUCUUUUCUGUCUACAAAUCCAAAG (ssRNA) [GABA RNA11] the binding result (PTB1:12 (RRM1-RRM2) [8]) was “no binding”, the Kd (PTB1 [9]) was 15 ± 2 nM and the Kd (PTB1:34 (RRM3-RRM4) [10]) was 50 ± 3 nM. For the same binder, the binding signal (PTB1/W3 [11]) was ~2 fold lower affinity than PTB1, the binding signal (PTB1/W4 [12]) was ~2 fold lower affinity than PTB1 and the binding signal (PTB1/W1) was ~2 fold lower affinity than PTB1.

With GGAUCCUUCUCUCUGCUUCUCUCUCGCUGGCCCUUAGGAGG (structured_RNA) [c-src 5' SL (39-mer)] the Kd (PTB1 [13]) was 45 ± 2 nM.

GGGCUUCUUCGGAUGUUUUCCUUCAAG (structured_RNA) [GABAA gamma2 exon 4 RNA]: no binding (PTB1:12 (RRM1-RRM2) [14]); no binding (PTB1:34 (RRM3-RRM4) [15]); no binding (PTB1 [7]).

GGGAUCGGUGCCAUCGAUGUCAGGUGUGUACCCCUUAGGAGG (structured_RNA) [c-src exon N1 RNA]: no binding (PTB1:12 (RRM1-RRM2) [14]); no binding (PTB1:34 (RRM3-RRM4) [15]); no binding (PTB1 [7]).

B2: c-src 3' end RNA (structured_RNA)
RNA: GGGAUCGCUUCGCUGAGGCUGGGGGCUGCUCUCUGCAUGUGCUUCCUCCACCGCCCCUGUGUGUUUCCAGCUCUCUCCCCGUCCCUUUAGCUUACCCUGCAUCCCACCUGUAUGAGCCGUACCC
B2: binds (PTB1 [16]); binds (PTB1:34 (RRM3-RRM4) [17]).
